Experimental data published in publication PMC5036006.

Columns and labels:
Assay in all cases: co-immunoprecipitation from transfected HEK293T
Conditions in all cases: reference: wild-type parafibromin; sites Y290,Y293,Y315
Gli1 = Gli1 (UniProt P08151)
[1] = molecular target: Notch intracellular domain (NICD) intracellular domain, 1744-2183 (UniProt Q01705)
β-catenin = β-catenin (UniProt P35222)

Measured: binding against the reference

parafibromin (from UniProt Q6P1J9) PR-parafibromin Y290/293/315F
stronger: all assays above
